Assay results taken from the MegaScale stability set (Tsuboyama et al. 2023).

B1: 5KPH (parent)
chain: EEKRQVKQVAKEKLLEQSPNSKVQVRRVQKQGNTIRVELELRTNGKKENYTVEVERQGNTWTVKRITRT

Variants of: B1
Test: folding stability dG (cDNA display proteolysis); higher = more stable
Details: PBS, room temperature

Variant	folding stability dG [kcal/mol]
N44E	4.02
N44Q	3.67
N44I	3.46
Q17G	3.64
Q17S	3.59
Q17P	1.82
Q17V	3.91
Q17E	3.31
Q17K	3.77
R68T	3
R68P	3.54
R68Y	3.32
R68N	3.89
Q24P	1.25
Q24R	4.41
Q24V	4.25
T34M	3.85
T34P	2.41
T34Y	3.92
T62Y	4.57
T62V	4.27
E16M	3.38
E16K	3.24
R36A	3.64

Variant	folding stability dG [kcal/mol]
R36Q	3.75
R36C	3.57
G32T	2.6
G32Y	3.13
L41C	3.37
L41Y	2.35
L41E	1.66
L41V	4.07
L41D	2.04
L41R	2.65
Q31K	3.83
Q29A	3.84
I66K	1.54
I66L	3.25
I66E	1.1
N33F	3.67
N33Y	3.5
N33K	3.75
N33T	3.82
N49Q	3.93
N49F	4.14
R56V	3.24
R56N	2.97
K64E	2.86

Variant	folding stability dG [kcal/mol]
K64Q	3.56
K64C	3.62
W61I	3.14
V25L	2.91
V25P	2.2
V25S	1.84
V28D	1.44
V28C	3.4
V28H	2.16
V28L	4.03
V28T	3.24
S21C	3.12
R4S	3.72
R4T	3.69
R4Q	3.81
R4V	3.34
V6F	2.99
V6Q	2.78
Q57V	4.18
Q57T	4.03
Q57L	3.96
Q57I	4.25
Q57Y	4.03
K11I	4.55

Variant	folding stability dG [kcal/mol]
L39C	3.88
L39Y	2.59
L39S	1.55
L39F	3.48
E40R	3.46
E40C	3.51
K7S	4.63
E38M	4.43
E2K	2.91
E2L	3.66
R26H	3.56
E12H	3.53
E12D	4.17
E12L	3.47
E12R	3.89
E12A	4.15
A10P	1.77
A10T	2.76
A10V	3.78
A10H	1.69
N20I	3.03
N20V	2.78
V54A	2.62
V54T	2.23

Variant	folding stability dG [kcal/mol]
V54R	0.035
V54D	-0.632
E55Y	3.92
E55D	3.2
P19D	2.31
P19A	2.83
V63I	3.47
V63D	0.956
V63A	3.02
Y50R	1.2
T69G	3.7
K30W	4.64
N59M	3.92
I35M	4.13
I35K	1.48
E53N	2.78
E53I	4.15
E53K	2.54
E53V	3.94
S18I	3.93
S18Y	4.74
S18P	1.99
R27Q	3.3
R27F	3.84

Variant	folding stability dG [kcal/mol]
R27E	2.76
E48R	3.35
E48N	3.08
K47Y	3.8
K47A	3.71
V37T	1.28
V37G	1.21
K46Q	3.84
K46M	3.89
K46V	3.98
T67Q	3.54
T67H	3.62
G58L	3.33
K3P	3.01
K3C	4.21
K3M	4.84
T60A	3.83
T60D	3.77
R65M	3.84
R65W	3.63
R42N	4.19
R42Q	3.81
R42Y	4.45
T51R	3.33

Variant	folding stability dG [kcal/mol]
T51K	3
T51G	2.5
V23K	1.37
V23I	3.9
V23D	1.23
V23R	1.43
K22N	3.62
L15T	2.92
L15H	2.98
V52F	2.52
G45R	3.42
G45Q	3.5
G45K	3.4
K13T	3.78
K13M	3.7
K13I	4.04
L14W	2.29
L14G	2.07
L14I	3.75
T43N	3.87
T43V	3.65
Q5D	3.73
Q5C	3.54
